According to US12449421 (SICHUAN CANCER HOSPITAL, dated 2025):

T1: recombinant human CD79B extracellular domain (amino acids 29-159), huCD79B (human, UniProt P40259 29-159)
T1 construct: Immunogen and SPR analyte; No tag or fusion partner is stated; also called human CD79B antigen; CD79B antigen
T1 sequence: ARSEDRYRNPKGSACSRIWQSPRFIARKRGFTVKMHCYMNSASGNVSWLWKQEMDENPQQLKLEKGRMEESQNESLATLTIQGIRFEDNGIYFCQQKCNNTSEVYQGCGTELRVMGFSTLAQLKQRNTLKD


Legend:
[1] = target: recombinant human CD79B extracellular domain (amino acids 29-159), huCD79B (human) (UniProt P40259); test: Biacore SPR, antibody captured on Protein A chip, huCD79B as analyte, 1:1 kinetic model
[2] = target: CD79B protein as expressed in Daudi cells and diffuse large B-cell lymphoma tissue (UniProt P40259); test: immunohistochemistry on 69 diffuse large B-cell lymphoma tissue cases; share of cases stained positive
[3] = target: T1, recombinant human CD79B extracellular …; test: Biacore SPR, antibody captured on Protein A chip, huCD79B as analyte, 1:1 kinetic model
Experimental: The ability of the antibody to bind to the antigen is characterized using Biacore™ Surface Plasmon Resonance (SPR). Specifically, a Protein A chip was used (with channel 1 as the reference channel and channel 2 as the ligand channel). The antibody was immobilized as the ligand in channel 2 of the Protein A chip at a concentration of 10 µg/ml, with an association time of 30 seconds and a flow rate of […].
In this embodiment, the analyte was flowed through both channel 1 and channel 2, with an association time of 60 seconds, a dissociation time of 90 seconds, and a flow rate of 30 µl/min. After the analyte injection was completed, the chip surface was regenerated using glycine buffer with a pH of 1.5. The ligand was immobilized before each analyte injection, and the chip surface was regenerated with the regeneration solution after the analyte injection was completed.
The affinity of the CD79B antibody for human CD79B antigen at the different concentrations mentioned above was determined using Biacore™ SPR. The corresponding analysis software was used to analyze the binding and dissociation with a 1:1 kinetic model.

Molecule | Kd [1] [nM] | koff [1] [s⁻¹] | kon [1] [M⁻¹ s⁻¹] | Pos. Rate (share of IHC-positive cases) [2] [%] | Kd [3] [nM] | koff [3] [s⁻¹] | kon [3] [M⁻¹ s⁻¹]
commercially available CD79B antibody (Abcam, EPR6861) | 19.3 | 0.00547 | 283000 | 100 |  |  | 
LBP2-CD79B (anti-CD79B recombinant rabbit monoclonal antibody) (antibody, V domains shown, the light chain variable region begins QVLTQTP; also called Anti-CD79B Protein Monoclonal Antibody; LBP2-CD79B monoclonal antibody) VH: QSLEESGGRLVTPGGSLTLTCTVSGIDLSTNVMRWVRQAPGKGLEWIGSMLISGNIYYASWAKGRLTISKTSSTTVDLKMTSLTAADTATYFCTRGRLWGQGTLVTVSS VL: AQVLTQTPSSVSAAVGGTVTINCQSSQSVWANNYLAWYQQKPGQPPKILIASASTLASGVSSRFKGSGSGTQFTLTISDVQCDDAATYYCLGSYDCSSADCNAFGGGTEVVVKG |  |  |  |  | 0.877 | 0.000775 | 844000
